Assay [1] concerns the target T1, cynomolgus monkey LY6K (R&D Systems) (cynomolgus monkey).
T1 construct: also called cyLY6K
Description: ELISA, coated antigen, IgG1 at 10 ug/ml. On the technique in general: In an ELISA, binding on a coated surface is turned into a signal by an enzyme label.

Another assay deals with T2, Human LY6K (R&D Systems) (human, UniProt Q17RY6 18-138, limits assumed).
T2 construct: Bought from R&D Systems, coated on ELISA plates; also called hLY6K
T2 sequence: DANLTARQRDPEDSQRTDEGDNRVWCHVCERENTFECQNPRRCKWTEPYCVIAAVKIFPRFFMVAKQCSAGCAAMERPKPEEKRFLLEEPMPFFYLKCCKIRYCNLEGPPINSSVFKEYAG
Nature of the assay: ELISA, coated antigen, IgG1 at 10 ug/ml.

The next assay addresses T3, rat LY6K (R&D Systems) (rat).
T3 construct: also called rLY6K
Description: ELISA, coated antigen, IgG1 at 10 ug/ml.

In assay [2] the target is T4, human LY6E (R&D Systems) (human, UniProt Q16553 21-101, limits assumed).
T4 construct: also called hLY6E
T4 sequence (looked up): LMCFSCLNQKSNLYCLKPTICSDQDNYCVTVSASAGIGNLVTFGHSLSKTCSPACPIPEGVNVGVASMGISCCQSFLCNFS
Description: ELISA, coated antigen, IgG1 at 10 ug/ml.

Assay [3] concerns the target T5, cell-surface anchored LY6K (human, UniProt Q17RY6 18-138).
T5 construct: the cell is named under assay; also called LY6K on target cells
T5 sequence: T2 sequence
Description: IHC, paraffin sections of 293 cells overexpressing LY6K.

In the next assay the target is cyLY6K-mFc (cynomolgus monkey). Nature of the assay: SPR (Carterra LSA), mAb captured on anti-human IgG-Fc, antigen as analyte.
For another assay, the target named is T6, hLY6K-mFc (human, UniProt Q17RY6 18-138).
T6 construct: not shown: mFc
T6 sequence: T2 sequence
Described as above.

The target of another assay is T7, hLY6K-his (human, UniProt Q17RY6 18-138, limits assumed).
T7 construct: not shown: his tag
T7 sequence: T2 sequence
Described as above.

For a further assay, the target named is T8, Ly6H.
T8 chain: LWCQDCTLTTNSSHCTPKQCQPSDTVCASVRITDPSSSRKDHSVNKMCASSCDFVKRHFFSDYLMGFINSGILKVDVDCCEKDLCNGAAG
Description: ELISA, antigen coated on the plate, antibody as human IgG1, anti-human F(ab)2 HRPO.

A further assay deals with T9, Ly6D.
T9 chain: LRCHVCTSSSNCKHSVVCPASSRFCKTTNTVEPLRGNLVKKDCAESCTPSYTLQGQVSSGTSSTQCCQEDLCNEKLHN
Described as above.

Assay [4] concerns the target T4, human LY6E (R&D Systems). The description is as above.
The target of assay [5] is T5, cell-surface anchored LY6K. Nature of the assay: flow cytometry on target cells, MFI fitted in Prism; flow cytometry, live target cells, 4 degrees C.
Assay [6] addresses T10, recombinant human LY6K (Wuxi) (human, UniProt Q17RY6 18-138).
T10 construct: Limits of the construct not clearly stated; also called Human LY6K (Wuxi LY^KGLY138(1-38TR)_8His)
T10 sequence: T2 sequence
Description: ELISA, LY6K coated at 2 ug/mL, HRP-labelled mAb titrated.

The target in assay [7] is T10, recombinant human LY6K (Wuxi). Nature of the assay: capture ELISA (MSD): antibody coated as capture at 2 µg/mL, recombinant human LY6K titrated, sulfo-tagged polyclonal anti-hLY6K (AF6648) for detection; EC50 is the LY6K concentration.
In assay [8] the target is T5, cell-surface anchored LY6K. Nature of the assay: flow cytometry on target cells, MFI fitted in Prism. A general note: In flow cytometry, cells or beads pass a laser one at a time.

Substitutions are numbered along the chain they refer to.

B1: anti-LY6K antibody 3724 (antibody, V domains shown)
VH: QLQLQESGPGLVKPSETLSLTCTVSGGSINSKSYYWDWIRQPPGKGLEWIGNIYYSGSTYYNPSLKSRVTISVDTSKNQFSLKLSSVTATDTAVYYCARHRGVTVTTYWYFDLWGRGTLVTVSS
VL: EIVLTQSPDFQSVTPKEKVTITCRASQSIGNSLHWYQQKSDQSPKLLIKYVSQSFSGVPSRFSGSGSGTDFTLTINSLEAEDAATYYCHQSSDFPHTFGQGTKLEIK
As for B1, the “% of maximum of commercial anti-LY6K mAb on human LY6K” value (“% of maximum … on human LY6K” below) in assay [1] was 3.2%; with Human LY6K (R&D Systems), 6.2%; in the assay with rat LY6K (R&D Systems) it was 3.3%; with human LY6E (R&D Systems) [2], 3.9%. Further, the binding result in [3] is given as “no binding (tested: 5 ug/ml)”.

B2: anti-LY6K antibody 3520 (antibody, V domains shown)
VH: QVQLVQSGSELKKPGASVKVSCKASGYTFTLYAMNWVRQAPGQGLEWMGWINTNTGNPTYAQGFTGRFVFSLDTSVSTAYLQISSLKAEDTAVYYCARTNWNSWGQGTMVTVSS
VL: DIQMTQSPSSLSASVGDRVTITCQASQDISNYLHWFQQKPGKAPKLLIYDASNLETGVPSRFSGSGSGTDFTFTIFSLQPEDIATYYCQHYDNLPLTFGGGTKVEIK
In the case of B2, the values for the equilibrium dissociation constant (Kd) in the assay with cyLY6K-mFc, in the assay with hLY6K-mFc and in the assay with hLY6K-his were 117 nM, 0.373 nM and 31.9 nM, respectively. In addition, the binding result in the assay with Ly6H, in the assay with Ly6D and with human LY6E (R&D Systems) [4] was “no binding (tested: 10 µg/ml)” throughout. Moreover, the EC50 in assay [5] came to 3.61 nM; in [6], 2.34 nM; in [7], 0.536 µg/mL. Moreover, the “% of maximum … on human LY6K” value worked out at 13.6% in [1], 61.2% with Human LY6K (R&D Systems), 0.7% with rat LY6K (R&D Systems) and 2.8% in the assay with human LY6E (R&D Systems) [2].

B3: anti-LY6K antibody 3075 (antibody, V domains shown)
VH: QVQLVQSGSELKRPGASVKVSCKASGYTFIRYAMNWVRQAPGQGLEWMGWINTNTGNPTYAQGFTGRFVLSVDTSVSTAYLQISSLKVEDTAVYYCGRPGISSFEYWGQGTLVTVSS
VL: B2 VL with T20A, Q24R, S26T, H34D, F36Y, F76N, H90Q
On to B3, for which the EC50 in [5] turned out to be 0.805 nM; in assay [6] it was 1.56 nM. The “% of maximum … on human LY6K” value is 16.7% in assay [1], 58.3% with Human LY6K (R&D Systems), 0.7% in the assay with rat LY6K (R&D Systems) and 1.6% in the assay with human LY6E (R&D Systems) [2].

B4: anti-LY6K antibody 3503 (antibody, V domains shown)
VH: EVQLVESGGGLVKPGGSLRLSCAASGFIFSSYSMNWVRQAPGKGLEWVSSISSSSSYIYYADSEKGRFTISRDNAKNSLYLQMNSLRAEDTAVYYCARQSTVVTSDYYYYYMDVWGKGTTVTVSS
VL: DIQMTQSPSSLSASVGDRVTITCRASQSISNYLNWYQQKPGKAPNLLIYAASSLQSGVPSRFSGSGSGTDFTLTISSLQPEDFATYYCQQSYSPPITFGQGTRLEIK
As for B4, the Kd in the assay with cyLY6K-mFc was 0.197 nM; with hLY6K-mFc, 0.0553 nM; with hLY6K-his, 3.49 nM. Further, the binding result with Ly6H, in the assay with Ly6D and with human LY6E (R&D Systems) [4] was “no binding (tested: 10 µg/ml)” in each case. The half-maximal effective concentration (EC50) in assay [5] worked out at 0.576 nM; in assay [6], 2.67 nM; in [7] it was 0.064 µg/mL. Besides, the “% of maximum … on human LY6K” value in assay [1] came out at 76.4%; with Human LY6K (R&D Systems), 66.6%; with rat LY6K (R&D Systems), 0.7%; in the assay with human LY6E (R&D Systems) [2], 2.9%.

B5: anti-LY6K antibody 3746 (antibody, V domains shown)
VH: B4 VH
VL: B4 VL
For the molecule B5, the results for the Kd with cyLY6K-mFc, in the assay with hLY6K-mFc and in the assay with hLY6K-his were 0.216 nM, 0.0362 nM and 2.5 nM, respectively. Besides, the EC50 in assay [5] amounted to 3.21 nM; in assay [6], 3.04 nM. Moreover, the “% of maximum … on human LY6K” value in assay [1] is 78.7%; with Human LY6K (R&D Systems), 76.9%; in the assay with rat LY6K (R&D Systems), 3.1%; in the assay with human LY6E (R&D Systems) [2], 1.2%.

B6: anti-LY6K antibody 2660 (antibody, V domains shown)
VH: EVQLVESGGGLVKPGGSLRLSCAASGFTFSDVWMSWVRQAPGKGLEWVGRIKSKTDGGRIDYAAPVKGRFTISRDDSKNTLYLQMNSLKTEDTAVYYCTTVPYSDYWGQGTLVTVSS
VL: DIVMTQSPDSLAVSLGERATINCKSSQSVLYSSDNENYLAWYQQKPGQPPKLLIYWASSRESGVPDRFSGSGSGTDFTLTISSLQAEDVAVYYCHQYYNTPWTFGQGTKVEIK
Take B6: the dissociation constant Kd with cyLY6K-mFc turned out to be 0.0518 nM; in the assay with hLY6K-mFc it was 0.00702 nM; in the assay with hLY6K-his, 3.59 nM. Further, the binding result in the assay with Ly6H, with Ly6D and with human LY6E (R&D Systems) [4] was “no binding (tested: 10 µg/ml)” each time. Further, the EC50 stood at 0.364 nM in [8], 1.57 nM in [6] and 0.0756 µg/mL in [7]. In addition, the “% of maximum … on human LY6K” value is 106% in assay [1], 95.1% in the assay with Human LY6K (R&D Systems), -0.1% in the assay with rat LY6K (R&D Systems) and 3.1% with human LY6E (R&D Systems) [2].

B7: anti-LY6K antibody 3074 (antibody, V domains shown)
VH: EVQLVESGGGLVHPGRSLRLSCAASGFTFDDYAMHWVRQAPGKGLEWVSGISWKTNKIDYADSVKGRFTTSRDNAKNSLYLQMNSLRTEDTAFYYCAKDRREMTFDIWGQGTMVTVSS
VL: DIVMTQTPLSSPVTLGQPASISCRSSQSLEHSNGNTYLSWLQQRPGQPPRLLIYKISNRFSGVPDRFSGSGAGTDFTLKISRVEAEDVGIYYCMQATQFPLTFGGGTKVEIK
On to B7, for which the Kd stood at 0.164 nM in the assay with hLY6K-mFc and 3.23 nM with hLY6K-his. Also, the binding result in the assay with Ly6H, with Ly6D and with human LY6E (R&D Systems) [4] was “no binding (tested: 10 µg/ml)” throughout. Besides, the EC50 in assay [8] was determined as 164 nM; in [6], 5.2 nM; in [7], 0.315 µg/mL. The “% of maximum … on human LY6K” value in assay [1] is -0.2%; with Human LY6K (R&D Systems) it was 89.2%; with rat LY6K (R&D Systems), -1.2%; in the assay with human LY6E (R&D Systems) [2], 3.4%.

B8: anti-LY6K antibody 3507 (antibody, V domains shown)
VH: EVQLVESGGGLVKPGGSLRLSCAASGFTFSSYSMNWVRQAPGKGLEWVSSISSSSDYIYYADSVKGRFTISRDDAKNSLYLQMNSLRAEDTAVYYCARGLEPNYYYYMDVWGKGTTVTVSS
VL: EIVMTQSPGTLSVSPGERATLSCRASQSVSSSYLAWYQQKPGQAPRLLIYGASTRATGIPARFSGSGSGTEFTLTISSLQSEDFAVYYCQQYNNWPLTFGGGTKVEIK
On to B8, for which the “% of maximum … on human LY6K” value is 2.6% in assay [1], 2.6% with Human LY6K (R&D Systems), -1.2% with rat LY6K (R&D Systems) and 1.7% in the assay with human LY6E (R&D Systems) [2]. Further, in assay [3], the binding result is on record as “no binding (tested: 5 ug/ml)”.

One may read the Kd as the concentration at which binding is half-saturated. The term EC50 denotes the concentration needed to bring the measured effect to its halfway point.

The record behind these values is patent US20260193375A1 (NORMUNITY, published 2026).
